From patent publication US20190112348A1

Experiments:
[1] = biological target: purified recombinant human insulin receptor (either with or without exon 11) (human) (UniProt P06213); experiment: SPA competition vs A14Tyr[125I]-human insulin on recombinant human insulin receptor, relative to human insulin, 0% HSA
[2] = biological target: purified recombinant human insulin receptor (either with or without exon 11) (human) (UniProt P06213); experiment: SPA competition vs A14Tyr[125I]-human insulin on recombinant human insulin receptor, relative to human insulin, 4.5% HSA in buffer

Chain of purified recombinant human insulin receptor (either with or without exon 11) (human) (P06213 other isoform, or with tags, fused parts or gaps limits assumed, form in doubt): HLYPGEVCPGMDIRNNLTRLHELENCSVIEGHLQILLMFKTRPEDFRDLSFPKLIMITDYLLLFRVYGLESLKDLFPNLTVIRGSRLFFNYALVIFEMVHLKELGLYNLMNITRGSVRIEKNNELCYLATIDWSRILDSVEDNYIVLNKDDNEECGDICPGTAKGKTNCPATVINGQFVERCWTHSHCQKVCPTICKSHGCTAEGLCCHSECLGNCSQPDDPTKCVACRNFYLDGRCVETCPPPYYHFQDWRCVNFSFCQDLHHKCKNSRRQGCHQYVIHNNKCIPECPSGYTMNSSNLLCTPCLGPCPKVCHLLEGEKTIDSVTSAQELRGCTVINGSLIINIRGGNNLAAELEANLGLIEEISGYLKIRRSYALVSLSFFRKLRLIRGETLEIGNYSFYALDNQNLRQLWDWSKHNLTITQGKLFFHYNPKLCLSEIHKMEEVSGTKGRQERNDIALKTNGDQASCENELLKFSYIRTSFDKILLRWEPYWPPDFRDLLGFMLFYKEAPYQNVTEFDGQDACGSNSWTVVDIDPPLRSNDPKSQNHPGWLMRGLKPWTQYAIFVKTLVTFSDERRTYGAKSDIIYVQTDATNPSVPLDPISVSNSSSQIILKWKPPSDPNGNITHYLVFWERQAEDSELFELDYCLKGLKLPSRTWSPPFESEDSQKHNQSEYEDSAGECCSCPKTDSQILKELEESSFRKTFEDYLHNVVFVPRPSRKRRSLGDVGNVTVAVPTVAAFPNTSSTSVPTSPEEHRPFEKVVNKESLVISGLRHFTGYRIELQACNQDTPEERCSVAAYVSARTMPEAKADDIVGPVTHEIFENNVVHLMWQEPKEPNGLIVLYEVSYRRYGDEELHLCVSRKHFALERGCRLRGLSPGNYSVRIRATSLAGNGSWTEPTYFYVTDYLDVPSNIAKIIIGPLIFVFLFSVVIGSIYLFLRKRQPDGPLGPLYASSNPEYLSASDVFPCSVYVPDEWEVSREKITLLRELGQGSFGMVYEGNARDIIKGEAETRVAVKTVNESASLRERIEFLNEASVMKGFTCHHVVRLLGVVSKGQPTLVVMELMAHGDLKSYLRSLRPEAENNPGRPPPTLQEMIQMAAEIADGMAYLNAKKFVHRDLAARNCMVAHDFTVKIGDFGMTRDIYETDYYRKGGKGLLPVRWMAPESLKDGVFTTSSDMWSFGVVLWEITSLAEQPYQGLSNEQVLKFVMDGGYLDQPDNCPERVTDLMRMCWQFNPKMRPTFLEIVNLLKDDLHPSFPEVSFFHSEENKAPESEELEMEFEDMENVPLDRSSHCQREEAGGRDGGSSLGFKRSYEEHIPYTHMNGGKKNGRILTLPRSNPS

| Relative IR-A affinity (@ 0% HSA) [1] [%] | Relative IR-A affinity (@ 4.5% HSA) [2] [%] | Substance |
| --- | --- | --- |
| 1.9 | 0.08 | A14E, B25H, B27K(N^εOctadecanedioyl-γGlu-OEG-OEG), desB28, desB29, desB30 Human Insulin (from UniProt P01308 90-110; P01308 25-51) (ligand) |
| 2.5 |  | A14E, B25H, desB27, B29K(N^εOctadecanedioyl-γGlu-OEG-OEG), desB30 Human Insulin (from UniProt P01308 90-110; P01308 25-50; P01308 52-53) (ligand) |
